B1: LINE1-full (parent)
chain: UACGUAGGUGGUUUUCCCCUGAUAGUGCUAAGGGGGCCUGGAAGUUUGGACUGGGCAGAGCUCAACACAGCGUGGCAAAGUGGCUGUGGCUAGACUGCCUCUCUGGAUUCCUCGUCACUCAGCAGGGCAUCUCUGAGAGAAAUGCC

Variants of: B1
Experiment: self-cleavage, relative activity (ratio to wild type); higher = more cleavage; in vitro, sequencing; the parent is a self-cleaving ribozyme

| Variant | self-cleavage |
| --- | --- |
| A141G U143C | 1.31 |
| U9A U29C | 1.19 |
| U9A U29A | 0.79 |
| U100G U104A | 1.17 |
| A69G G125A | 0.72 |
| U45A U134A | 1.11 |
| A65U U143C | 0.24 |
| U9A A22G | 1.53 |
| G53A U130A | 1.21 |
| A59C U108C | 1.28 |
| G72U U73C | 0.9 |
| A22G G44A | 1.25 |
| A24G G55A | 0.3 |
| U9A G33U | 1.6 |
| C84U U100A | 0.07 |
| C17A U46C | 1.42 |
| U14C A30U | 1.11 |
| U73C G139U | 2.83 |
| G10A G11A | 1.61 |
| U13C U52A | 1.44 |
| C56U A77U | 0.11 |
| A57G A140G | 0.91 |
| A30C G36A | 1.09 |
| U112A U115A | 1.4 |

| Variant | self-cleavage |
| --- | --- |
| U23C A31U | 0.77 |
| C28A A64G | 0.28 |
| C99A G114A | 0.44 |
| A64G C76U | 0.13 |
| U52C G106U | 0.8 |
| A6C A22G | 0.46 |
| A6G G33A | 0.49 |
| G10A C131U | 1.19 |
| G48A A140U | 1.28 |
| C18U A78U | 0.9 |
| A24G A50G | 1.16 |
| A79G C128A | 0.46 |
| G80A G126U | 2.06 |
| U1C A2G | 0.72 |
| U85A A107G | 0.08 |
| U112G A136G | 2.3 |
| G44C A141G | 1.03 |
| A64C U108C | 0.39 |
| U12C U39G | 0.84 |
| C18A A22G | 0.7 |
| C51U A78U | 2.19 |
| A2G A24U | 1.34 |
| U47A A136U | 1.48 |
| A43G U130C | 1.2 |

| Variant | self-cleavage |
| --- | --- |
| A2G A59U | 0.8 |
| U102C A129U | 1.22 |
| G4C A64G | 1.25 |
| A50U A59G | 0.04 |
| A31G A92G | 0.09 |
| G72A A77U | 1.44 |
| U12C U104C | 1.56 |
| U14A U134C | 1.62 |
| A43C A79G | 0.75 |
| A117C A138G | 2.04 |
| U9A A121G | 1.56 |
| U5C U13A | 1.67 |
| A59G C71A | 0.06 |
| U47G U130A | 1.23 |
| U87C G88A | 0.09 |
| U29C U96A | 0.15 |
| G60A A69G | 0.05 |
| G34A U85C | 0.12 |
| U1A A141U | 1.42 |
| A30G U134A | 1.05 |
| U15A U115A | 1.07 |
| G41C U115A | 1.88 |
| G10A U109C | 1.08 |
| G49U U134A | 1.19 |

| Variant | self-cleavage |
| --- | --- |
| A42U G53A | 1.72 |
| G80A U100C | 1.42 |
| A92G U115C | 0.08 |
| G58U A129G | 0.05 |
| A57U A77G | 0.17 |
| A50U C118U | 1.02 |
| U100C A121U | 2.11 |
| A6U U104G | 0.48 |
| U23C U143C | 1.41 |
| U14A A50U | 0.18 |
| G74C C99U | 0.61 |
| U46A U102C | 1.28 |
| A78G U130A | 1.1 |
| U73C G126A | 2.44 |
| A67U C131U | 0.08 |
| A107C U108A | 1.36 |
| U52G U119A | 0.93 |
| U45A A124G | 0.41 |
| U112C A140U | 1.29 |
| U1C G25A | 0.72 |
| U112G C128U | 2.54 |
| U9C G34U | 1.09 |
| U5C A42G | 0.75 |
| U87C U112C | 0.23 |

| Variant | self-cleavage |
| --- | --- |
| G114C U115C | 1.24 |
| G4U U119C | 1.31 |
| U73A G83A | 0.53 |
| G33U U47C | 1.73 |
| A42U G82A | 1.38 |
| G32A G75C | 0.65 |
| A24U U26C | 0.97 |
| G86A U87C | 0.04 |
| A22G A92C | 0.12 |
| U5C U91C | 0.48 |
| A77C U143C | 1.12 |
| U15A U73C | 1.06 |
| U26C C28U | 1.15 |
| A64G A117G | 0.21 |
| A77G U96A | 0.13 |
| A57G A67G | 0.28 |
| U1G U132C | 1.36 |
| U14C C99U | 0.75 |
| A77G A94G | 0.68 |
| G40U A78G | 0.81 |
| U45A U130A | 1.38 |
| A129G A142G | 1.67 |
| C116U A117G | 1.61 |
| G11A G105A | 1.27 |

| Variant | self-cleavage |
| --- | --- |
| U9A G60A | 0.1 |
| G55A A79G | 0.4 |
| U13C G72U | 1.21 |
| U96C U112A | 0.12 |
| C90U A94U | 0.04 |
| A24G A59U | 1.17 |
| U9C A59G | 0.11 |
| U112C A129G | 1.42 |
| A69U G88A | 0.01 |
| U15A C133U | 1.31 |
| G32A A43G | 1.25 |
| A79U G125A | 1.6 |
| A57U A92U | 0.07 |
| A6G U115A | 0.64 |
| U91A U102C | 0.22 |
| U12G A121G | 1.4 |
| U13A U87A | 0.07 |
| U15A C19U | 0.93 |
| U81C C111U | 1.75 |
| U39A U96A | 0.04 |
| U46A A78G | 0.69 |
| A2U U100A | 0.66 |
| A2U U100C | 0.95 |
| G25A A142C | 2.3 |

| Variant | self-cleavage |
| --- | --- |
| G32C G60U | 0.02 |
| A79C A92G | 0.24 |
| G21A A77G | 2.18 |
| C68U A136G | 0.36 |
| U13A U104C | 1.51 |
| U26A A42U | 1.03 |
| U15C U96C | 0.23 |
| C19U A107G | 1.41 |
| A42U U91C | 0.27 |
| A50G G97A | 0.06 |
| U20A C95U | 0.13 |
| U5C G89U | 0.16 |
| G4U A136G | 1.91 |
| U13G A31G | 0.39 |
| U52C G126A | 1.18 |
| C16U U104C | 1.03 |
| U9C C56U | 0.37 |
| U108A U112C | 2.53 |
| A78G C98U | 0.47 |
| U45A G114U | 1.46 |
| U85G C128U | 0.39 |
| A79G G80A | 1.89 |
| A6G A69G | 0.32 |

— the RNAGym collection of RNA variant scans (doi:10.7554/elife.90254)
